Reference: a protein production outcome set (Wang et al. 2014)

Assay: label from the status in PepcDB records
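Further: failed if final PepcDB status was selected cloned or expressed and not failed if soluble or beyond.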

Sequence	protein production
METPKGTIIFTTVGRTHYGFDVFSLNIATSVERRLTDGVSVNFNAQFVNDKSDDVVFVSERNGSARIYKTRSGISKPEQIPGAPESYFHDRPIITQNNRLYFISAHEQPDRYFKNWSALYTVELNSAKREVTRVTPPDTADFSPAVSQSGDFLAVASYGTRSWGGEFHEINTDITVFKASKPETRVVICERGGWPTWSGDSTVFFHHQADDGWWSIFRVDIPENFTEYTDFPITPIRVTPSGLHCFTPAAFRDGKRIALATRRRGVNHRHIEIYDLENTTFQPVTESLNPSFHHYNPFVSPDSEFLGYHRFRGESTQGESIVPNIESIVSPIKTLRLLRINGSFPSSSPNGDLIALNSDFDINGGIKVSKSDGSKRWTLIKDRTAFYNSWSPTERHVIYTSLGPIFSPARIAVQIARIKFDPSDLTADKEDLPCDVKILTLENTGNNAFPSCSPDGKSIVFRSGRSGHKNLYIVDAVNGESNGGGIRRLTDGPWIDTMPCWSPKGDLIGFSSNRHNPENTAVFGAYVVRPDGTGLRRIQISGPEGSEEAARERVNHVSFNKDGDWLVFAANLSGVTAEPVTMPNQFQPYGDLYVVKLDGTGLRRLTWNGYEDGTPTWHTADELDLSQLNLNGQDGDKLEGQFEEPLWISCDI	failed
METQFHGGDGEDPWLARDKLYHVIFCFSISLIFSTLASFSRYSFLRRHSIWIGSAFSLAAGAAKEAADQIGIFPSAGASVRDAVADAIGVVIAALVLLLWKSRRSRTRPILPI	failed
METRAAENTAIFMCKCCNLFSPNQSELLSHVSEKHMEEGVNVDEIIIPLRPLSTPEPPNSSKTRDEFLVMKRKRGRPKGSTKKSSTEEELAENIVSPTEDSPLAPEEGNSLPPSSLECSKCCRKFSNTRQLRKHICIIVLNLGEEEGEAGNESDLELEKKCKEDDREKASKRPRSQKTEKVQKISGKEARQLSGAKKPIISVVLTAHEAIPGATKIVPVEAGPPETGATNSETTSADLVPRRGYQEYAIQQTPYEQPMKSSRLGPTQLKIFTCEYCNKVFKFKHSLQAHLRIHTNEKPYKCPQCSYASAIKANLNVHLRKHTGEKFACDYCSFTCLSKGHLKVHIERVHKKIKQHCRFCKKKYSDVKNLIKHIRDAHDPQDKKVKEALDELCLMTREGKRQLLYDCHICERKFKNELDRDRHMLVHGDKWPFACELCGHGATKYQALELHVRKHPFVYVCAVCRKKFVSSIRLRTHIKEVHGAAQEALVFTSSINQSFCLLEPGGDIQQEALGDQLQLVEEEFALQGVNALKEEACPGDTQLEEGRKEPEAPGEMPAPAVHLASPQAESTALPPCELETTVVSSSDLHSQEVVSDDFLLKNDTSSAEAHAAPEKPPDMQHRSSVQTQGEVITLLLSKAQSAGSDQESHGAQSPLGEGQNMAVLSAGDPDPSRCLRSNPAEASDLLPPVAGGGDTITHQPDSCKAAPEHRSGITAFMKVLNSLQKKQMNTSLCERIRKVYGDLECEYCGKLFWYQVHFDMHVRTHTREHLYYCSQCHYSSITKNCLKRHVIQKHSNILLKCPTDGCDYSTPDKYKLQAHLKVHTALDKRSYSCPVCEKSFSEDRLIKSHIKTNHPEVSMSTISEVLGRRVQLKGLIGKRAMKCPYCDFYFMKNGSDLQRHIWAHEGVKPFKCSLCEYATRSKSNLKAHMNRHSTEKTHLCDMCGKKFKSKGTLKSHKLLHTADGKQFKCTVCDYTAAQKPQLLRHMEQHVSFKPFRCAHCHYSCNISGSLKRHYNRKHPNEEYANVGTGELAAEVLIQQGGLKCPVCSFVYGTKWEFNRHLKNKHGLKVVEIDGDPKWETATEAPEEPSTQYLHITEAEEDVQGTQAAVAALQDLRYTSESGDRLDPTAVNILQQIIELGAETHDATALASVVAMAPGTVTVVKQVTEEEPSSNHTVMIQETVQQASVELAEQHHLVVSSDDVEGIETVTVYTQGGEASEFIVYVQEAMQPVEEQAVEQPAQEL	not failed
METRAHHVLIGLFTVIVVAGALLFGLWLAKSSVDSAFQDYQIVFNEAVSGLSKGSSVQYSGIKVGDVVNLRLDPKDPRRVLAQIRLGSETPIKEDTQAKLALTGITGTSIIQLSGGTPQSPTLKGKDGELPTIIASPSPIARLLNNSNDLMTGVNLLLHNANRMFSPDNVARVSSTLDNLQKTSASIAEQRDDLRQLMQQLGSISKQTGAMLEQTTALMRNANGLLNDQGKQMFGSAEHAMRSLEQSSATLNKLLSDNQDSLNNGMQGLNGLAPAVRELRETLSSLRAITRRLEANPGGYLLGNEKNKEFTPLEHHHHHH	not failed
METSLISPMKENNTAQPQQREENTQQNLNAAVPIKQQSPGLLPEALEVGVKPDPASQILATQEIENPVAGFEGDSDKFHISTDEMAEHLQASDLWYCPDGSFVKKIIVHGHGLDKPKLGSKCRVLALGFPFGSGMPEGWTELTIGTGQWREKTWGELTEKCLESMRQGEEAKIHLPGSSTPLAKLRLDSFTNGRDSWELEAVEKEALAKEEHRRGTELFRAGNPQGAARCYGRALRLLLTLPPPGPPERTILHANLAACQLLLGHPQLAAQSCDRVLEREPGHLKALYRRGVAQAALGDLDKATADLKKVLAVDPKNRAAKEELGKVVIQGKIQDAGLARGLRKMFS	failed
METWITSIMADFGYIGIFLLIMIENLFPPIPSEIILTFGGFMTTVSSLNVVMVIIVATLGSVVGAILLYKVASYFGKERLTHIVLKYGRVLRLKESDIERAESFFLKYGSWAVFLCRMIPLIRSLISIPAGMTKMKMSRFLILTTAGSLLWNTVLIGLGALLGESWGEIVVFMDSFSTVIYSIIAVITLLGLGFFFRARFKKTLDEE	failed
MEVAPSFSSVLKDCAVIEGQDFVLQCSVRGTPVPRITWLLNGQPIQYARSTCEAGVAELHIQDALPEDHGTYTCLAENALGQVSCSAWVTVH	not failed
MEVFKVFATLSLVDMISGPLGSVSEGMELLGGKVSALGSRMGKLAVAMAPVALAAGVLLGTLGLAAREAIAFESAMADVAKVVNFESAGELKAMSATILDMSTRIPMAADGLAAIVAAAAQSGVARQDLTDFAEQAAKMGVAFDLTGDQAGKMMADWRAGMNLTLPRVYALADATNHLSNNMNATAPALGEVIQRVGAVGMAAGLSETQVAALGAAFLSAGASPEIASTALKKFTSTLVRGSALSKDAQAAFGALGFSVTQMAKDMQTDAQGTIFKVLQALADKPKELQMSLLTEMFGEEALGAIAPLLANMGNLSQAFDLVGDSAAYAGSMQGEFEARSRTTENALLLLGNKAKALMIVIGSYFLPVIGAVADALGGFVDMLRAAAQTAGGEFALKLVAGVSAAIVAATALSGALWLLSAAGPMLAAALAPLKAALLGLSWPMWAIIAVVGALYLAYKTNFAGIGDTLRRWWQTVSLVVRGVMAVFSTLTDGVGEIRGELATEIRAAGLEGLVASVGSVVYRVQAFFRGLWDGVSGVGDRLAVVFGPTLDRLGAVFGQLFTVLGGLGEAFFGVSAASDVSGWERFGNVIGSVVCGAVEILATAFTALLAPIEMAAGMLQFVLDLFNGVSLFDAGAKLLGTFVDGIMSMVSAPFEAAKKALDMVGKLLPHSDADEGPLSTLTASGMATLSTMGEGMTAAAPGLHDTLETALGDAVAPQIEAPATADVQPGRKTARAAQGRGVTITIGTLNLPGVTNAQDFVAQLQDFVAAYDGVPEGGLV	failed
MEVFLKEFLLNKFFIDFFYKNQNNITIKTILVTFKVIFSICFNSSNFGLRYSKKKTLNLSELMHLVTFMLAYFLIQV	failed
MEVKIEKPTPEKLKELSVEKWPIWEKEVSEFDWYYDTNETCYILEGKVEVTTEDGKKYVIEKGDLVTFPKGLRCRWKVLEPVRKHYNLF	not failed
MEVKVQSDDLEYVVSTVRSYINSYETDVNPLYIRFYFFESDNPLLDENFDEIRKILVPSGYIPAVIKGPENYIEVTRRPKENYRSIYVNIIMLVLTLLSTVYVGSIYAASFVRPGPYYEFYKLLYGFVFFSLPLMFILGIHETAHYLVARRYRVNASLPFFIPFPYIIGTFGAFVSLRDPIPDRKAMTEIGAAGPIAGFLASIPLMFLAQYFEKVIKPVNNVIPFQLNYPLIYKLFGIFEPVKVPVFPMVFAVWVGIFATAMNLIPAGQLDGGHIVRGLLGSRAYILNYIFLGFLFYLAIVYNYLGWLFLALFVIFLGLVHPPALNDYARIKMRDVFIGIFCLLMFIITFTPLPIKP	failed
MEVLRYRSRPIVGGEAEGPAVVIDSLSFYGEVDPETGVTSGGKPLAGRVAAIRRSRGSTVGSYVIYALKENGVAPLAILMERAEPIVIAGCVLAGIPLYDGLPPEFFERVRDGYRVRVHSDGLVEVLGPGQP	failed
MEVQETRVQTDRVLTIPNILSMARLVGVPVFLWLILRPEFGGPKSDGWALLVLALSGISDYLDGKLARRWNQISSLGRLLDPAADRLYILSTLVGLTWREILPIWLTAALLARELVLLVMVGILRRHGYPPPQVNFLGKAATFNLMYAFPLLLLSDSSGWIGSLAAIFGWAFAGWGTTLYWWAGVLYMVQVRRLVRADAVAD	failed
MEVSRALLFELGVLLAVLAVLGAVARRFALSPIPVYLLAGLSLGNGGILGVAAAGEFIATGAPIGVVLLLLALGLEFSATEFASSLRHHLPSAGVDIVLNATPGAVAGWLLGLDGVAILGLAGVTYISSSGVIARLLEDLRRLGNRETPAVLSVLVLEDFAMAAYLPLFAVLATDGSWLEAVVGMTVAIAALLGAFAASYRWGHHVGRLVTHPDSEQLLLRVLGITLIVAAVAESLHASAAVGAFLVGLTLTGETADRARMVLTPLRDLFATIFFLGIGLSVDPGKLVSMLPVALALAAVTAATKVATGMFAARREGVARRGQLRAGTALVARGEFSLIIIGLAGASIPGVAALATAYVFVMAIVGPILARYTGGGLPAAAVASN	failed
MEVVRIPEFKEKTAPGAYYQQPAIDGSRPGRFYANLFDIKATPKYGMRTLAYHEGIPGHHFQVAVAMELEGQPLIRKMAPFTAYIEGWALYSERVAWELGFQQDPFDNIGRLQAELFRAVRLVVDTGIHHSRWTREQAIDYMKKNTGMSDRDVTAEIERYIVMPGQATAYKVGMMKILELREKAKQALGDKFDLRDFHDVVLKNGAVPLDILEKLVDRYIADKR	failed
MEWLNEPPNWSHSDQKIIVTTSPKTDFWRITHYGFIRDSGHFYFDRVSTDFVVDVKIKGNYKDLYDQAGIMIRADEQHWIKTGIEYVDGVQNLSAVVTHNYSDWSFTPLLNPPNIFQVRVERCQEAIHIAYLDEYSRYVPFRMAYFPVALDIQVGIMCASPQGNGYEVIFEDYQLTKKGEKLSLEHHHHHH	failed
MEWQAEQAYNHLPPLPLDSKLAELAETLPILKACIPARAALAELKQAGELLPNQGLLINLLPLLEAQGSSEIENIVTTTDKLFQYAQEDSQADPMTKEALRYRTALYQCFTQLSNRPLCVTTALEICSTIKSVQMDVRKVPGTSLTNQATGEVIYTPPAGESVIRDLLSNWEAFLHNQDDVDPLIKMAMAHYQFEAIHPFIDGNGRTGRVLNILYLIDQQLLSAPILYLSRYIVAHKQDYYRLLLNVTTQQEWQPWIIFILNAVEQTAKWTTHKIAAARELIAHTTEYVRQQLPKIYSHELVQVIFEQPYCRIQNLVESGLAKRQTASVYLKQLCDIGVLEEVQSGKEKLFVHPKFVTLMTKDSNQFSRYAL	not failed
MEYELLIREAEPKDAAELVAFLNRVSLETDFTSLDGDGILLTSEEMEIFLNKQASSDNQITLLAFLNGKIAGIVNITADQRKRVRHIGDLFIVIGKRYWNNGLGSLLLEEAIEWAQASGILRRLQLTVQTRNQAAVHLYQKHGFVIEGSQERGAYIEEGKFIDVYLMGKLIG	not failed
MEYFLPLISIVTISYNAVNLIEKTILSVVEQDTADFEYIVIDGGSTDGTVEVIRKYENAISYWVSESDKGIFDAMNKALSVAKGDWVIFMNSGDCFYNNHVLSEIAIYMKDEETELIYGDVNLFSGKRNFIFKQRVSGININLNSVCHQTVFIRRKLHPYFDVRYKLTADHDIIFDFIKRGQYIHANIVIAKVLLGGVSHDVIKTSLEKLLISYRKGTFMDLLLSPLCNIYQVIKYFVKKLLISALPIELFNKMSRMKSKMESNFLEHHHHHH	not failed
